Results on three molecules are retold here after US20210054355A1 (NEW YORK UNIVERSITY, published 2021).

Sequences and labels used below:
B2: αKlotho^ecto/ΔRBA (soluble αKlotho ectodomain lacking L544 to T565 of the KL2 β1α1 loop) (receptor)
chain: EPGDGAQTWARVSRPPAPEAAGLFQGTFPDGFLWAVGSAAYQTEGGWQQHGKGASIWDTFTHHPLAPPGDSRNASLPLGAPSPLQPATGDVASDSYNNVFRDTEALRELGVTHYRFSISWARVLPNGSAGVPNREGLRYYRRLLERLRELGVQPVVTLYHWDLPQRLQDAYGGWANRALADHFRDYAELCFRHFGGQVKYWITIDNPYVVAWHGYATGRLAPGIRGSPRLGYLVAHNLLLAHAKVWHLYNTSFRPTQGGQVSIALSSHWINPRRMTDHSIKECQKSLDFVLGWFAKPVFIDGDYPESMKNNLSSILPDFTESEKKFIKGTADFFALCFGPTLSFQLLDPHMKFRQLESPNLRQLLSWIDLEFNHPQIFIVENGWFVSGTTKRDDAKYMYYLKKFIMETLKAIKLDGVDVIGYTAWSLMDGFEWHRGYSIRRGLFYVDFLSQDKMLLPKSSALFYQKLIEKNGFPPLPENQPLEGTFPCDFAWGVVDNYIQVDTTLSQFTDKKRKSYCVDFAAIQPQIALLQEMHVTHFRFSLDWALILPLGNQSQVNHTILQYYRCMASELVRVNITPVVALWQPMAPNQGLPRLLARQGAWENPYTALAFAEYARLCFQELGHHVKLWITMNEPYTRNMTYSAGHNLLKAHALAWHVYNEKFRHAQNGKISIALQADWIEPACPFSQKDKEVAERVLEFDIGWLAEPIFGSGDYPWVMRDWLNQRNNFLLPYFTEDEKKLIQGTFDFLALSHYTTILVDSEKEDPIKYNDYLEVQEMTDITWLNSPSQVAVVPWGLRKVLNWLKFKYGDLPMYIISNGIDDGLHAEDDQLRVYYMQNYINEALKAHILDGINLCGYFAYSFNDRTAPRFGLYRYAADQFEPKASMKHYRKIIDSNGFPGPETLERFCPEEFTVCTECSFFHTRKS
notes: the mature protein is E34 to S959; Expressed and purified like the wild type (pEF1α/myc-His A); also called α-Klotho^ecto/deltaRBA; αKlotho^ecto/ΔRBA mutant
B3: FGFR1c^ecto (human FGFR1c ligand-binding domain, D2, D3 and D2-D3 linker) (receptor)
chain: DNTKPNRMPVAPYWTSPEKMEKKLHAVPAAKTVKFKCPSSGTPNPTLRWLKNGKEFKPDHRIGGYKVRYATWSIIMDSVVPSDKGNYTCIVENEYGSINHTYQLDVVERSPHRPILQAGLPANKTVALGSNVEFMCKVYSDPQPHIQWLKHIEVNGSKIGPDNLPYVQILKTAGVNTTDKEMEVLHLRNVSFEDAGEYTCLAGNSIGLSHHSAWLTVLEALEER

The target in series [1] is B3. Put plainly: SEC-MALS, 1:1:1 ternary complex with FGFR1c^ecto and αKlotho^ecto. How it is done:
(§1) A Superdex 200 10/300 GL column (GE Healthcare, USA) was placed in-line between the HPLC pump (Waters 1525) and the HPLC UV (Waters 2998 Photodiode Array), laser light scattering, and refractive index detectors. Light scattering and refractive index detectors were calibrated following the manufacturer's guidelines. The refractive index increment (dn/dc) in which n is the refractive index and c is the concentration of the mixture of DDM and CHS in 20 mM Tris-HCl pH 8.0 buffer containing 300 mM NaCl, was determined offline using an Optilab T-rEX refractive index detector. Monomeric bovine serum albumin (#23210, Thermo Scientific, USA) was used as part of routine data quality control.
(§2) 60 ml or more of 25 mM HEPES pH 7.5 buffer containing 150 mM NaCl were passed through the system at a flow rate of 0.5 mL/min to equilibrate the Superdex 200 10/300 GL column and establish stable baselines for light scattering and refractive index detectors. Purified αKlotho^ecto, FGER1c^ecto (wild type or mutant), and FGF23 (wild type or mutant) proteins were mixed at a molar ratio of 1:1:1 and concentrated to 12.5 μM. 50 μl of protein samples with a molar equivalent of a heparin hexasaccharide (#H006, Iduron, Manchester, U.K.) were injected onto the gel filtration column, and the column eluent was continuously monitored for 280 nm absorbance, laser light scattering, and refractive index. […]
A general note: SEC sorts molecules by how far they enter the pores of the column.

For series [2], the target named is T1, Soluble human α-Klotho ectodomain (αKlotho^ecto) (human, UniProt Q9UEF7 34-981).
T1 construct: also called wild-type αKlotho^ecto; soluble αKlotho
T1 sequence: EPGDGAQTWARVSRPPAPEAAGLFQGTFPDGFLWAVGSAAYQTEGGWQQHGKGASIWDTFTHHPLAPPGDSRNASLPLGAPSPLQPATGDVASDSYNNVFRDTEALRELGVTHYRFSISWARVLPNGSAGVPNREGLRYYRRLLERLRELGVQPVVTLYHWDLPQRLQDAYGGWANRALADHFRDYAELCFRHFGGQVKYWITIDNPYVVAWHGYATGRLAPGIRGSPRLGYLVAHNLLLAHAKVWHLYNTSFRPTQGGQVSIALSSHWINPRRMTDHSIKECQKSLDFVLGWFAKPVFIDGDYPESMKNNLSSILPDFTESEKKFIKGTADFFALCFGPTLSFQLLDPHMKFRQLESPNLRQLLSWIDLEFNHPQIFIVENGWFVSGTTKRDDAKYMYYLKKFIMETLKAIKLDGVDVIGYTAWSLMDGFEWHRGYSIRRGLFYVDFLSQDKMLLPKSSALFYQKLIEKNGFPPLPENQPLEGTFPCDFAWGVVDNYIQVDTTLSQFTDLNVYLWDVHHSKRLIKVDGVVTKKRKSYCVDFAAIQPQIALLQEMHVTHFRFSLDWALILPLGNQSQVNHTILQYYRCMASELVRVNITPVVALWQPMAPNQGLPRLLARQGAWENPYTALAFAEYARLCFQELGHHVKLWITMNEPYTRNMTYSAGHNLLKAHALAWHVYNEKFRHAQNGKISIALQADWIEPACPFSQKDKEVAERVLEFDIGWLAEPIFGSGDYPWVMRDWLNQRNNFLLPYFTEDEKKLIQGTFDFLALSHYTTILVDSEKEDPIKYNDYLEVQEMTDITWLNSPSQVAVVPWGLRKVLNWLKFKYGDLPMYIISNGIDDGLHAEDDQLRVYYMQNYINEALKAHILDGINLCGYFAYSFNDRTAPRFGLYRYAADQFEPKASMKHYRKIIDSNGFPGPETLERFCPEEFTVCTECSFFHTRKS
The experiment in a line: SEC-MALS, 1:1:1 mixture with FGFR1c^ecto and αKlotho^ecto. How it is done:
as §1, §2

Series [3] has as its target T2, FGF23 C-terminal tail peptide (FGF23^C-tail) (human).
T2 construct: The peptide may have been shorter, e.g. S180 to S205
T2 peptide: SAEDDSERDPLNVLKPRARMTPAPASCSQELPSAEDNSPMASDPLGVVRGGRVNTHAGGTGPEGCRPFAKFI
Put plainly: fluorescence dye-based thermal shift assay (SYPRO Orange), 1:1 mixture; over the peak of αKlotho^ecto/ΔRBA alone the sheet prints 51 [right]. How it is done: Fluorescence Dye-Based Thermal Shift Assay: SYPRO Orange dye (#S6650, ThermoFisher Scientific, USA) was used as the fluorescent probe. 15 μl of 20 μM solutions of protein samples (wild-type and mutated forms of FGF23; αKlotho^ecto or αKlotho^{ecto/ΔRBA} alone; 1:1 mixtures of αKlotho^ecto or αKlotho^{ecto/ΔRBA} with FGF23 C-terminal tail peptide) were mixed with 5 μl of working dye solution (1:25 dilution) in duplicate in PCR strips. A temperature gradient from 4° C. to 100° C. at 1° C./minute increment was carried out with a CFX96 Touch™ Real-Time PCR Detection System (Bio-Rad, USA). Fluorescence was recorded as a function of temperature in real time. The melting temperature (Tm) was calculated with StepOne software v2.2 as the maximum of the derivative of the resulting SYPRO Orange fluorescence curves.

For series [4], the target named is T1, Soluble human α-Klotho ectodomain …. Put plainly: SEC-MALS of a 1:1 mixture, UV280 absorbance and molecular weight against retention time [panel A].
The target in series [5] is B2. The description is as above.

B1: FGF23^ΔSRBS (FGF23^WT carrying M149A/N150A/P151A) (ligand)
chain: YPNASPLLGSSWGGLIHLYTATARNSYHLQIHKNGHVDGAPHQTIYSALMIRSEDAGFVVITGVMSRRYLCMDFRGNIFGSHYFDPENCRFQHQTLENGYDVYHSPQYHFLVSLGRAKRAFLPGAAAPPYSQFLSRRNEIPLIHFNTPIPRQHTQSAEDDSERDPLNVLKPRARMTPAPAS
With B1, the binding result in series [1] and in series [2] was “binds” throughout.

Regarding B2, in series [3], the “melting temperature (peak of derivative fluorescence) of the mixture” value amounted to 57.5 °C.

As to B3, the binding result in series [4] was “binds”; in series [5], “no binding”.
